Results as given in article PMC3314626, “Crystal Structures of the Tetratricopeptide Repeat Domains of Kinesin Light Chains: Insight into Cargo Recognition Mechanisms” (PLoS ONE, 2012).

B1: JIP1 peptide (C-terminal residues of JNK-interacting protein 1) (peptide)
peptide: Ac-EYTCPTEDIYLE-OH
B2: ALC1 peptide (alcadein-1) (peptide)
peptide: Ac-EMDWDDSALT-OH

Assays:
Assay in all cases: ITC; peptide (1-3 mM) in the syringe injected into 60-130 uM KLC1-TPR or KLC2-TPR (or mutant) in the cell; 25 C; 20 mM Bis-Tris pH 6.5, 500 mM NaCl, 0.5 mM TCEP; one-site binding model
[1] = target: KLC1 TPR domain (kinesin light chain 1 tetratricopeptide repeat domain) (human) (UniProt Q07866)
[2] = target: KLC1-TPR N301A mutant (human) (UniProt Q07866)
[3] = target: KLC1-TPR N343S mutant (human) (UniProt Q07866)

| Binder | Kd [1] | dH [1] | stoichiometry N [1] | Kd [2] | dH [2] | stoichiometry N [2] | Kd [3] | dH [3] | stoichiometry N [3] |
| --- | --- | --- | --- | --- | --- | --- | --- | --- | --- |
| B1 | 9.4 µM | -1.52 kcal/mol | 1.02 |  |  |  |  |  |  |
| B2 | 50.3 µM | -2.5 kcal/mol | 1.85 | 179 µM | -1.2 kcal/mol | 1.02 | 44.3 µM | -1.7 kcal/mol | 2.13 |
